Assay results from article PMC10368747, “Zinc-finger BED domains drive the formation of the active Hermes transpososome by asymmetric DNA binding”.
Where “and” joins values, the source holds several entries; their conditions need not be identical. Identical values can stand only once.

What was measured:
[1] = target: full-length Hermes transposase (with the mutations Q2E and K128G) (Musca domestica) (UniProt Q25442); assay: mass photometry; Hermes (10 µM) mixed with 2.5, 5 or 10 µM left-end DNAs, dialysed to 150 mM NaCl, 25 mM HEPES.Na pH 7.5, 0.3 mM TCEP, diluted 50 and 100 times; composition by subtracting the mass of the hexamer or octamer
[2] = target: full-length Hermes transposase (with the mutations Q2E and K128G) (Musca domestica) (UniProt Q25442); assay: SEC + other: mass photometry; purified Hermes transposase alone, dialysed against 25 mM HEPES.Na pH 7.5, 0.3 mM TCEP with 0.5, 0.25 or 0.15 M NaCl; Superose 6 SEC; mass photometry at 50, 65 and 30 nM; higher salt favours the octamer, lower salt the hexamer
[3] = target: full-length Hermes transposase (with the mutations Q2E and K128G) (Musca domestica) (UniProt Q25442); assay: cryo-EM structure; RE-RE transpososome: Hermes with 8 + RE-TIR + 30 DNA, 8:2 protein-to-DNA, 150 mM NaCl, 25 mM HEPES.Na pH 7.5, purified by SEC
[4] = target: full-length Hermes transposase (with the mutations Q2E and K128G) (Musca domestica) (UniProt Q25442); assay: cryo-EM structure; LE-LE transpososome: Hermes with 8 + LE-TIR + 30 DNA, 8:2 protein-to-DNA, 150 mM NaCl, 25 mM HEPES.Na pH 7.5, purified by SEC
[5] = target: full-length Hermes transposase (with the mutations Q2E and K128G) (Musca domestica) (UniProt Q25442); assay: as above; remark: listed apart in the source
Hermes BED domain [6] = target: T1, Hermes BED domain (Musca domestica, UniProt Q25442 1-78); assay: EMSA; one BED per DNA; Kd in Fig. 6c is 1.7 or 2.8 uM, assignment not resolvable from text; BED EMSA: 25 mM HEPES.Na pH 7.5, 150 mM NaCl, 0.3 mM TCEP, 1 uM DNA, 0.5 uM ran17, 0-10 uM BED, 1 h 4 C then 15 min RT; 15% PAGE 0.5X TBE; Hermes SEC at 150 mM; details: protein: recombinant; tags: untagged; label: 5'-6FAM top strand (EMSA); blunt
T1 sequence: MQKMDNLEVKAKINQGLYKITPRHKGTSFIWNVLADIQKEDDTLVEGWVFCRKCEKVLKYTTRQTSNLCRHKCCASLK

Hermes BED domain [7] = target: T1, Hermes BED domain; assay: EMSA; two BED per DNA, cooperative; 0.5 uM ran17 competitor; value assigned by the peer review file; BED EMSA: 25 mM HEPES.Na pH 7.5, 150 mM NaCl, 0.3 mM TCEP, 1 uM DNA, 0.5 uM ran17, 0-10 uM BED, 1 h 4 C then 15 min RT; 15% PAGE 0.5X TBE; Hermes SEC at 150 mM; details: protein: recombinant; tags: untagged; label: 5'-6FAM top strand (EMSA, 10% of the DNA); blunt

full-length Hermes transposase (with the mutations Q2E and K128G) (from UniProt Q25442 1-612) (enzyme)
stoichiometry N [1]: 6 and 8
stoichiometry N [2]: 6 monomers and 8 monomers
stoichiometry N [3]: 8
stoichiometry N [4]: 6
stoichiometry N [5]: 8

B1: LE11-27mut (dsDNA)
DNA 1: CAACAAGTGTTTTATTT
DNA 2: AAATAAAACACTTGTTG
binding result (Hermes BED domain [6]): binds

B2: LE11-27 (dsDNA)
DNA 1: CAACAAGTGGCTTATTT
DNA 2: AAATAAGCCACTTGTTG
Kd (Hermes BED domain [7]): 2500 ± 200 nM
